Legend:
[1] = target: LinClpA (ClpA ATPase chaperone of Leptospira interrogans) (L. interrogans serovar Copenhageni strain Fiocruz L1-130); assay: ANS dye-binding fluorescence; LinClpA (3 μM) pre-incubated with ATP, GTP, CTP, UTP, ADP or PolyP (2 mM) 20 minutes at 4°C, then ANS (10 μM); excitation 350 nm, emission 400-750 nm; less ANS fluorescence read as oligomerization
[2] = target: LinClpS2 (Clp adaptor protein ClpS2 of Leptospira interrogans) (L. interrogans serovar Copenhageni strain Fiocruz L1-130) (UniProt Q72RD1)
[3] = target: LinClpS1 (Clp adaptor protein ClpS1 of Leptospira interrogans) (L. interrogans serovar Copenhageni strain Fiocruz L1-130)
[4] = target: LinClpS2 (Clp adaptor protein ClpS2 of Leptospira interrogans) (L. interrogans serovar Copenhageni strain Fiocruz L1-130) (UniProt Q72RD1); remark: listed apart in the source
[5] = target: LinClpS1 (Clp adaptor protein ClpS1 of Leptospira interrogans) (L. interrogans serovar Copenhageni strain Fiocruz L1-130); remark: listed apart in the source
[6] = target: LinClpS2 (Clp adaptor protein ClpS2 of Leptospira interrogans) (L. interrogans serovar Copenhageni strain Fiocruz L1-130) (UniProt Q72RD1); assay: ELISA; LinClpP1, LinClpP2, LinClpS1 or LinClpS2 (1 μM/well) coated overnight at 4°C; blocked with 3% BSA in PBS; ATP-bound LinClpA or LinClpA^∆N (0–3 μM) overlaid 2 hours at 37°C; detected with mouse anti-LinClpA; Kd by Hill plot analysis
[7] = target: LinClpP2 (ClpP2 isoform of the Clp protease of Leptospira interrogans) (L. interrogans) (UniProt Q72R01); assay: as above
[8] = target: LinClpS1 (Clp adaptor protein ClpS1 of Leptospira interrogans) (L. interrogans serovar Copenhageni strain Fiocruz L1-130); assay: as above
[9] = target: LinClpP1 (ClpP1 isoform of the Clp protease of Leptospira interrogans) (L. interrogans) (UniProt Q72SG6); assay: as above
[10] = target: T1, LinClpA (Leptospira interrogans, UniProt Q8F4D7); assay: ANS fluorescence change on oligomerization; assay type: binding; conditions: 2 mM nucleotide, 3 μM protein, 10 μM ANS, 8 mM MgCl2, pH 7.8; indirect, oligomerization read-out
T1 construct: gene clpA; full length, 740 residues, C-terminal 6xHis tag (pET-23a), E. coli BL21 (DE3), Ni-NTA; monomer ~82 kDa, ~492 kDa oligomer with ATP
T1 sequence (Q8F4D7 19-758): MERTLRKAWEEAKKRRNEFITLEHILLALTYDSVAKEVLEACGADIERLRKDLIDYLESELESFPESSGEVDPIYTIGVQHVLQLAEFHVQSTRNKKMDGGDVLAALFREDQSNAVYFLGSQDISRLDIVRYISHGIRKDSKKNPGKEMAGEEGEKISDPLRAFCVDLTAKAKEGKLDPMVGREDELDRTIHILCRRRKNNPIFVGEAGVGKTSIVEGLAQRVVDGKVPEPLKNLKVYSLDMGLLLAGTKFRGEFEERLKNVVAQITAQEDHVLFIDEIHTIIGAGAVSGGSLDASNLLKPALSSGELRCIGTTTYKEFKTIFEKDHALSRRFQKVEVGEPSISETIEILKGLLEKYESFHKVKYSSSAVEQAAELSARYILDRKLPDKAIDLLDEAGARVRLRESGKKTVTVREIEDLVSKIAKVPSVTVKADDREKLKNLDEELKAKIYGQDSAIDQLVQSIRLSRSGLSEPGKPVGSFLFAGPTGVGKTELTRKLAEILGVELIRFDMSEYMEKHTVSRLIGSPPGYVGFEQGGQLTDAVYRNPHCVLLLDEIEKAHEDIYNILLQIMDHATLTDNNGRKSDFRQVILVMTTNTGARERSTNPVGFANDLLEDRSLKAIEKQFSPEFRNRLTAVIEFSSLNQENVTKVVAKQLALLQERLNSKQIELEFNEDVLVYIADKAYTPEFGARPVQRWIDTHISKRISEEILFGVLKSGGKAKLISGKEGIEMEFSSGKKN
Description: ANS fluorescence change on oligomerization on LinClpA | pre-incubation of LinClpA with ADP, PolyP or ATP led to reductions in ANS fluorescence

[11] = target: T1, LinClpA; assay: malachite green phosphate release; assay type: biochemical; conditions: 8 mM Mg2+, pH 7.8, 37°C, 1 μM enzyme
[12] = target: T1, LinClpA; assay: ANS fluorescence change on oligomerization (also size-exclusion chromatography); assay type: binding; conditions: 2 mM nucleotide, 3 μM protein, 10 μM ANS, 8 mM MgCl2, pH 7.8; indirect, oligomerization read-out
[13] = target: T1, LinClpA; assay: ANS fluorescence change on oligomerization; assay type: binding; conditions: 2 mM nucleotide, 3 μM protein, 10 μM ANS, 8 mM MgCl2, pH 7.8; indirect, oligomerization read-out; remark: listed apart in the source
[14] = target: ClpS (Escherichia coli) (UniProt P0A8Q6); conditions: cited from earlier work

LinClpS2 (Clp adaptor protein ClpS2 of Leptospira interrogans) (L. interrogans serovar Copenhageni strain Fiocruz L1-130), sequence (Q72RD1 whole entry, canonical isoform): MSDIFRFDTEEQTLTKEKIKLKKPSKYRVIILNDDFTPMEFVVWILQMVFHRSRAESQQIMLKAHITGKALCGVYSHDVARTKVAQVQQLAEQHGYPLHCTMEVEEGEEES
ClpA, sequence (P0ABH9 whole entry): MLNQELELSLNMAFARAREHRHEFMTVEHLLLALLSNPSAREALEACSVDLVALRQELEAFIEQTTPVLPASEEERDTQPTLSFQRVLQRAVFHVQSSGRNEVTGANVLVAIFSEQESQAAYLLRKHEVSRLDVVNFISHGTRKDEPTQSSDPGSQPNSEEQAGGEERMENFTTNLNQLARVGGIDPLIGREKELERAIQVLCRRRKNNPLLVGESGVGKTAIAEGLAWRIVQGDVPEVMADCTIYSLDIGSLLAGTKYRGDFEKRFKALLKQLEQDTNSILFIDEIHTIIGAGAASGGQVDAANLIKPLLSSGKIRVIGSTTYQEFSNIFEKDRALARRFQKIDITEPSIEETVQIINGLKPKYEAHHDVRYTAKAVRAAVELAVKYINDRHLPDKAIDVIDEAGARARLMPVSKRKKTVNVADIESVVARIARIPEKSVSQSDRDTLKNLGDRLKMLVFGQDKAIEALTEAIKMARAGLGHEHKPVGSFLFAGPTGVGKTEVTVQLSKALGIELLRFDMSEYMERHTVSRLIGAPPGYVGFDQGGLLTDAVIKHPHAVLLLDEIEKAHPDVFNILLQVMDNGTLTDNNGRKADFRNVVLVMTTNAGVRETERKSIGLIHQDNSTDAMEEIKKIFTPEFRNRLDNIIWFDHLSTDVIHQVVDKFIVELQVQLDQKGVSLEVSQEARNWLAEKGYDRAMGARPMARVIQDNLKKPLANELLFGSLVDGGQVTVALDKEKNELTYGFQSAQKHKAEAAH

In the case of “LinClpA (ClpA ATPase chaperone of Leptospira interrogans) (enzyme)”, the ANS fluorescence intensity with ADP, percent of pure LinClpA [1] is reported as 65%, the ANS fluorescence intensity with ATP, percent of pure LinClpA [1] is reported as 50% and the ANS fluorescence intensity with PolyP, percent of pure LinClpA [1] is reported as 55%. It also gave a degradation of eGFP-SsrA (2 μM) by the LinClpAP1P2 machinery (3 µM) after 60 minutes with LinClpS2 5, 10 and 15 µM, percent of the machinery without adaptor; value at 5 µM; total suppression at 10 µM (% of LinClpAP1P2 activity) [2] of 39, a degradation of eGFP-SsrA (2 μM) by the LinClpAP1P2 machinery (3 µM) after 60 minutes with LinClpS1 5, 10 and 15 µM, percent of the machinery without adaptor; value at 5 µM; total suppression at 15 µM (% of LinClpAP1P2 activity) [3] of 53 and an ATPase activity of LinClpA (1 μM, malachite green) with LinClpS2 1–10 μM; dose-dependent inhibition; percent reduction at 10 μM [4] of 90 % reduction. The ATPase activity of LinClpA (1 μM, malachite green) with LinClpS1 1–10 μM; dose-dependent inhibition; percent reduction at 10 μM [5] was 57 % reduction, the Kd [6] was 320 nM and the Kd [7] was 280 nM. For the same molecule, the Kd [8] was 440 nM and the Kd [9] was 280 nM.

In the case of `Nc1ncnc2c1ncn2[C@@H]1O[C@H](COP(=O)(O)OP(=O)(O)O)[C@@H](O)[C@H]1O` [ADP], the “ANS fluorescence, % of pure LinClpA” value [10] is reported as 65%.

For `Nc1ncnc2c1ncn2[C@@H]1O[C@H](COP(=O)(O)OP(=O)(O)OP(=O)(O)O)[C@@H](O)[C@H]1O` [ATP], the “malachite green phosphate release” value [11] was “LinClpA primarily utilizes ATP as its substrate” and the “ANS fluorescence, % of pure LinClpA” value [12] was 50%.

With `O=c1ccn([C@@H]2O[C@H](COP(=O)(O)OP(=O)(O)OP(=O)(O)O)[C@@H](O)[C@H]2O)c(=O)[nH]1` [UTP] the “ANS fluorescence change on oligomerization” value (from here on “ANS fluorescence change”) [13] was “can interact with various nucleotides, including GTP, CTP and UTP, in addition to ATP”.

With `Nc1nc2c(ncn2[C@@H]2O[C@H](COP(=O)(O)OP(=O)(O)OP(=O)(O)O)[C@@H](O)[C@H]2O)c(=O)[nH]1` [GTP] the “ANS fluorescence change” value [13] was “can interact with various nucleotides, including GTP, CTP and UTP, in addition to ATP”.

For `Nc1ccn([C@@H]2O[C@H](COP(=O)(O)OP(=O)(O)OP(=O)(O)O)[C@@H](O)[C@H]2O)c(=O)n1` [CTP], the “ANS fluorescence change” value [13] was “can interact with various nucleotides, including GTP, CTP and UTP, in addition to ATP”.

In the case of ClpA (from UniProt P0ABH9), the Kd [14] is listed as 330 nM.

“LinClpA^∆N (N-domain-deleted variant of LinClpA) (domain or fragment)” gave a Kd [7] of 280 nM and a Kd [9] of 280 nM.

From paper PMC12493166, “The ClpA chaperone and the two adaptor proteins modulate the fate of the model substrate tagged with a SsrA-degron of Leptospira” (Biochemical Journal, 2025)
